{
  "source": "paper PMC3782296",
  "about": "(Journal of molecular biology, 2011)",
  "proteins": {"B1": {"name": "wild-type human Tom40A lacking amino acid residues 1 to 82 (hTom40AΔ1-82) (domain or fragment, UniProt O96008 83-361, looked up)", "chain": "FEECHRKCKELFPIQMEGVKLTVNKGLSNHFQVNHTVALSTIGESNYHFGVTYVGTKQLSPTEAFPVLVGDMDNSGSLNAQVIHQLGPGLRSKMAIQTQQSKFVNWQVDGEYRGSDFTAAVTLGNPDVLVGSGILVAHYLQSITPCLALGGELVYHRRPGEEGTVMSLAGKYTLNNWLATVTLGQAGMHATYYHKASDQLQVGVEFEASTRMQDTSVSFGYQLDLPKANLLFKGSVDSNWIVGATLEKKLPPLPLTLALGAFLNHRKNKFQCGFGLTIG"}},
  "target": "the molecule itself",
  "test": "cross-linking",
  "data": [
    {"protein": "B1", "values": [
      {"measurement": "stoichiometry N", "result": 2}
    ]}
  ]
}
